Reference: the supplement of paper PMC10567573

B1: FAM189A2 (parent)
chain: VAAALRYLQIFATRRSCIDESQIS
B2: SLC22A15 (parent)
chain: IAQYALLGYFIRSWRTLAILVNLQ

Variants of: B1
Assay: protein stability index of a GFP-peptide fusion (GPS, HEK-293T) (PSI 1-6); higher = more stable
Conditions: c terminus: a fixed tail appended
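Also: lentivirally expressed fusions sorted by FACS into six bins by GFP to DsRed ratio, PSI derived from sequencing read proportions per bin multiplied by bin number.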

Protein stability index, by site and new letter:
Q9: V 2.85 | K 1.7 | W 2.67 | P 2.14 | A 2.72 | R 2.24 | C 3.59 | I 3.15 | N 1.81 | E 3.07
S24: F 3.22 | H 2.29 | T 2.85 | Q 2.04 | R 3.04 | K 1.16 | G 2.54
A2: N 1.27 | I 4.56 | L 2.9 | M 1.99 | C 2.64 | D 2.63 | K 3.28 | W 3.06
S16: W 2.37 | E 1.79 | K 2.15 | V 2.01 | L 2.4 | D 1.8 | Q 1.79 | C 1.87
Q22: H 2.61 | D 2.32 | C 4.63 | F 2.04 | T 1.07 | V 2.87
A3: I 4.72 | N 2.98 | E 2.34 | F 1.83 | H 2.27 | R 1.71 | S 1.97 | W 3.75 | Q 1.8
I23: C 1.73 | R 1.91 | E 2.76 | D 1.77 | T 2.18 | M 1.35 | Y 3.27 | Q 1.88 | A 1.24 | S 1.84 | N 3.01
V1: P 1.56 | Q 2.38 | R 2.21 | N 1.89 | S 1.38 | G 1.67 | H 2.36 | E 1.58 | C 1.68
T13: A 1.71 | N 1.99 | F 2.78 | H 2.75 | S 1.76 | P 2.29 | K 2.61
R6: V 2.96 | P 2.76 | L 3.52 | Y 2.79
L8: N 2.14 | E 2.04 | R 1.84 | F 2.23 | Y 3.39 | H 2.08 | A 2.36 | P 1.68 | Q 1.6 | D 2.44 | S 1.9
A12: H 2.87 | F 2.03 | C 2.17 | G 1.65 | D 1.97 | M 2.18 | S 3.61 | R 2.46 | Y 2.74 | T 1.97 | V 2.09
Y7: I 1.99 | N 1.98 | K 1.63 | T 2.49 | E 2.41 | V 2.4 | H 2.25 | R 1.85 | S 2.92 | A 1.95 | P 2.04 | D 1.76
C17: D 1.9 | P 2.05 | I 2.44 | H 1.27 | V 1.27 | G 3.03 | M 2.58 | L 1.58 | S 1.74 | K 1.89
S21: T 2.03 | N 1.73 | R 2.78 | H 2.45 | D 2.28 | M 3.11 | G 1.83 | Y 4.49 | W 2.67 | P 1.97
R14: A 1.61 | F 2.54 | G 1.88 | D 2.37 | Y 3.44 | E 1.12 | S 2.38 | N 1.5
F11: P 2.1 | K 2.03 | A 2.69 | R 2.63
I10: D 2.24 | F 1.73 | V 1.69 | Q 2.37 | G 1.87 | T 1.59 | S 2.19 | R 2.55 | K 2.73 | W 2.48 | H 1.7
E20: G 2.34 | P 3.3 | C 3.76 | K 3.19 | T 3.24 | Y 3.14 | S 2.66
D19: I 2.5 | A 2.45 | V 3.57 | C 3.29 | P 1.77 | Y 4.69 | K 3.22
A4: C 2.83 | N 2.83 | G 2.23 | D 2.19 | I 2.64 | W 2.27 | E 1.25
R15: F 2.52 | S 1.99 | Y 2.55 | H 1.94 | K 2.62 | M 1.28 | E 2.13 | A 2.44
L5: P 2.08 | E 1.87 | V 4.11 | G 2.91 | C 1.18 | N 1.92 | R 2.94 | A 3.88 | S 1.41 | Q 2.12 | D 2.36
I18: D 2.02 | F 4.04 | V 1.89 | K 2.7 | C 2.3 | A 2.58 | S 2.14 | G 2.2 | N 2.27 | W 4.01

Variants of: B2
Assay: as above
Conditions: c terminus: a fixed tail appended

Protein stability index: each site, then its substitutions
I19: N 3 | P 3.94 | Q 3.02 | K 2.96 | A 3.93 | D 3.35 | S 1.99 | C 3.7 | V 2.96 | L 2.4 | E 4 | H 3.34 | F 2.53 | W 2.01 | M 2.84 | R 2.16 | Y 3.28 | T 2.44
L17: V 4.09 | W 2.85 | T 4.02 | Y 2.18 | S 3.35
Q24: C 2.35 | S 2.34 | N 2.07 | Y 2.82 | V 2.92 | A 4.01 | M 2.6 | E 3.5 | K 3.21 | P 3.8 | L 3.01 | H 2.79 | I 3.51 | D 2.49 | R 3.17 | W 2.37 | T 3.58 | F 2.7 | G 2.66
N22: K 2.52 | M 2.6 | V 2.23 | G 1.88 | I 3.28 | D 3.52 | R 1.22 | Y 1.37 | W 3.89 | F 2.84 | H 2.27 | S 2.85 | Q 3.36 | E 2.57 | T 1.9 | A 2.95
L23: T 3.08 | G 3.35 | M 4.11 | P 2.52 | F 2.79 | K 3.75 | C 3.16 | Y 3.34 | S 3.76 | W 2.35 | I 2.5 | R 2.6 | V 4.42 | D 3.83 | H 2.81 | Q 3.66 | E 2.25 | A 2.65 | N 3.06
V21: C 2.52 | R 2.7 | H 2.69 | K 2.38 | P 3.37 | S 2.08 | T 3.6 | N 2.8 | Y 2.37 | L 3.19 | G 1.76 | E 2.14 | A 2.78 | I 4.67 | D 2.85 | Q 2.24 | F 2.86
L20: D 2.57 | G 3.27 | E 2.77 | S 3.12 | R 3.09 | H 3.94 | T 2.91 | Y 2.76 | V 2.1 | Q 3.19 | I 5.13 | M 3.89 | N 2 | C 3.7 | W 2.32 | A 3.21 | K 2.38 | P 3.33
A18: C 2.44 | R 2.01 | K 1.91 | H 2.25 | F 3.68 | M 2.17 | I 3.41 | Y 3.11 | P 3 | L 3.84 | N 3.65 | Q 2.15 | D 2.57 | S 3.54 | W 2.12 | G 3.28
